Results published in article doi:10.1101/2021.04.27.441571.
Values belong to the molecule of their own block, whether it stands above or below them.

Columns and labels:
talin R3-IVVI domain [1] = biological target: talin R3-IVVI domain
talin R3-IVVI domain [2] = biological target: talin R3-IVVI domain; remark: listed apart in the source
[3] = biological target: wild type (WT) talin R3 domain
talin R3-IVVI domain [4] = biological target: talin R3-IVVI domain; remark: listed apart in the source
talin R3-IVVI domain [5] = biological target: talin R3-IVVI domain; remark: listed apart in the source

intersection force of talin R3-IVVI (chevron plot), with Hsp70; control 9.8 pN (talin R3-IVVI domain [1]): 7.2 pN
Molecule: Hsp70 (from UniProt P0DMV8 1-641) (natural protein)

intersection force of R3-WT with DsbA; without chaperone ∼6 pN [3]: 10 pN
B1: DsbA (oxidized) (enzyme)
chain: AQYEDGKQYTTLEKPVAGAPQVLEFFSFFCPHCYQFEEVLHISDNVKKKLPEGVKMTKYHVNFMGGDLGKDLTQAWAVAMALGVEDKVTVPLFEGVQKTQTIRSASDIRDVFINAGIKGEEYDAAWNSFVVKSLVAQQEKAAADVQLRGVPAMFVNGKYQLNPQGMDTSNMDVFVQQYADTVKYLSEKK
modifications: oxidized (0.3% H2O2 overnight)

More lines, now with the values behind:

Molecule: Hsp40 (from UniProt P25685 1-340) (natural protein)
intersection force of talin R3-IVVI (chevron plot), with Hsp40; control 9.8 pN (talin R3-IVVI domain [1]): 7.8 pN

Molecule: DnaJ (from UniProt P08622 1-376) (natural protein)
percent of force-ramp events of R3-IVVI with hysteresis, with DnaJ; control ∼9% (talin R3-IVVI domain [2]): 86%
intersection force of R3-WT with DnaJ; without chaperone ∼6 pN [3]: 4 pN

Molecule: DnaK (from UniProt P0A6Y8 1-638) (natural protein)
percent of force-ramp events of R3-IVVI with hysteresis, with DnaK; control ∼9% (talin R3-IVVI domain [2]): 91%
intersection force of R3-WT with DnaK; without chaperone ∼6 pN [3]: 4 pN
intersection force of R3-IVVI with DnaK-ADP complex (chevron plot) (talin R3-IVVI domain [4]): 7.1 pN
intersection force of R3-IVVI with DnaK-ATP (chevron plot) (talin R3-IVVI domain [4]): 7.6 pN
unfolding force of R3-IVVI in the presence of DnaK, DnaJ and ADP (DnaKJ-ADP) (talin R3-IVVI domain [5]): 6 pN
unfolding force of R3-IVVI with DnaK after addition of ATP (apo-DnaK: ∼6 pN) (talin R3-IVVI domain [5]): 7.5 pN
